{"source": "paper PMC3101314", "key": {"[1]": {"biological_target": "mature HIV-1 protease bearing drug-resistance mutation L76V (PR_(L76V)) (HIV-1)", "assay": "enzyme activity against protease concentration"}, "[2]": {"biological_target": "mature HIV-1 protease bearing drug-resistance mutation L76V (PR_(L76V)) (HIV-1)", "assay": "ITC"}}, "data": [{"substance": "mature HIV-1 protease bearing drug-resistance mutation L76V (PR_(L76V)) (enzyme)", "values": [{"measurement": "Kd", "setting": "[1]", "result": 71, "unit": "nM"}]}, {"substance": "RPB inhibitor (H-Arg-Val-Leu-(r)-Phe-Glu-Ala-Nle-NH2), substrate-analog inhibitor with a reduced peptide bond", "values": [{"measurement": "Kd", "setting": "[2]", "result": 61, "unit": "nM"}]}]}
